Positions count from the first letter of the chain named.
Key:
Assay in all cases: cell-based or functional assay
[1] = biological target: hemagglutinin (HA) of H5N1 virus strain YN2.1 (H5N1 avian influenza virus, strain YN2.1)
[2] = biological target: hemagglutinin (HA) of H5N1 virus strain B1 (H5N1 avian influenza virus, strain B1)
[3] = biological target: hemagglutinin (HA) of H5N1 virus strain B8 (H5N1 avian influenza virus, strain B8)
[4] = biological target: hemagglutinin (HA) of H5N1 virus strain F2 (H5N1 avian influenza virus, strain F2)
[5] = biological target: H5 virus strain (fifteen strains of H5N1 viruses)
[6] = biological target: hemagglutinin (HA) of H5N1 virus strain IDN3.1 (H5N1 avian influenza virus, strain IDN3.1)
[7] = biological target: hemagglutinin (HA) of H5N1 virus strain GD1.1 (H5N1 avian influenza virus, strain GD1.1)
[8] = biological target: hemagglutinin (HA) of H5N1 virus strain B3 (H5N1 avian influenza virus, strain B3)
[9] = biological target: hemagglutinin (HA) of H5N1 virus strain C2 (H5N1 avian influenza virus, strain C2)
[10] = biological target: hemagglutinin (HA) of H5N1 virus strain Mixed1.1 (H5N1 avian influenza virus, strain Mixed1.1)
[11] = biological target: hemagglutinin (HA) of H5N1 virus strain D3 (H5N1 avian influenza virus, strain D3)
[12] = biological target: hemagglutinin (HA) of H5N1 virus strain G1 (H5N1 avian influenza virus, strain G1)
[13] = biological target: hemagglutinin (HA) of H5N1 virus strain C3 (H5N1 avian influenza virus, strain C3)
[14] = biological target: hemagglutinin (HA) of H5N1 virus strain FJ1.5 (H5N1 avian influenza virus, strain FJ1.5)
[15] = biological target: hemagglutinin (HA) of H5N1 virus strain VNM2-2.1 (H5N1 avian influenza virus, strain VNM2-2.1)
[16] = biological target: hemagglutinin (HA) of H5N1 virus strain A3 (H5N1 avian influenza virus, strain A3)
[17] = biological target: hemagglutinin (HA) of H5N1 virus strain VTM1.1 (H5N1 avian influenza virus, strain VTM1.1)
[18] = biological target: hemagglutinin (HA) of H5N1 virus strain A8 (H5N1 avian influenza virus, strain A8)
[19] = biological target: hemagglutinin (HA) of H5N1 virus strain A2 (H5N1 avian influenza virus, strain A2)
[20] = biological target: hemagglutinin (HA) of H5N1 virus strain GD3.1 (H5N1 avian influenza virus, strain GD3.1)
[21] = biological target: hemagglutinin (HA) of H5N1 virus strain B7 (H5N1 avian influenza virus, strain B7)
[22] = biological target: hemagglutinin (HA) of H5N1 virus strain F3 (H5N1 avian influenza virus, strain F3)
[23] = biological target: hemagglutinin (HA) of H5N1 virus strain HN3.1 (H5N1 avian influenza virus, strain HN3.1)
[24] = biological target: hemagglutinin (HA) of H5N1 virus strain QH1.1 (H5N1 avian influenza virus, strain QH1.1)
[25] = biological target: hemagglutinin (HA) of H5N1 virus strain E1 (H5N1 avian influenza virus, strain E1)
[26] = biological target: hemagglutinin (HA) of H5N1 virus strain D1 (H5N1 avian influenza virus, strain D1)
[27] = biological target: hemagglutinin (HA) of H5N1 virus strain D2 (H5N1 avian influenza virus, strain D2)
[28] = biological target: hemagglutinin (HA) of H5N1 virus strain E2 (H5N1 avian influenza virus, strain E2)
[29] = biological target: hemagglutinin (HA) of H5N1 virus strain IDN1.1 (H5N1 avian influenza virus, strain IDN1.1)
[30] = biological target: hemagglutinin (HA) of H5N1 virus strain A1 (H5N1 avian influenza virus, strain A1)
[31] = biological target: hemagglutinin (HA) of H5N1 virus strain A6 (H5N1 avian influenza virus, strain A6)
[32] = biological target: hemagglutinin (HA) of H5N1 virus strain B6 (H5N1 avian influenza virus, strain B6)
[33] = biological target: hemagglutinin (HA) of H5N1 virus strain H2 (H5N1 avian influenza virus, strain H2)
[34] = biological target: hemagglutinin (HA) of H5N1 virus strain GD4.1 (H5N1 avian influenza virus, strain GD4.1)
[35] = biological target: hemagglutinin (HA) of H5N1 virus strain VTM4.1 (H5N1 avian influenza virus, strain VTM4.1)
[36] = biological target: hemagglutinin (HA) of H5N1 virus strain IDN6.1 (H5N1 avian influenza virus, strain IDN6.1)
[37] = biological target: 14 strains of non-H5 viruses (H1~H13, Chicken NDV)
[38] = biological target: hemagglutinin (HA) of H5N1 virus strain A7 (H5N1 avian influenza virus, strain A7)
[39] = biological target: hemagglutinin (HA) of H5N1 virus strain B4 (H5N1 avian influenza virus, strain B4)
[40] = biological target: hemagglutinin (HA) of H5N1 virus strain IDN8.1 (H5N1 avian influenza virus, strain IDN8.1)
[41] = biological target: hemagglutinin (HA) of H5N1 virus strain F4 (H5N1 avian influenza virus, strain F4)

B1: monoclonal antibody 13D4 (antibody, V domains shown)
VH: QVQLQQSGAELMKPGASVKISCKATGYTFSGHWIEWVKQRPGHGLEWIGEILPGSGNIHYNEKFKGKATFAADTSSNTAYMQLSSLTSEDSAVYYCARLGTTAVERDWYFDVWGQGTTVTESL
VL: DIVMTQSQKFMSASVGDRVSVTCKASQNVGTHLAWYQQKPGQSPKALIYSASYRYSGVPDRFTGSGSGTDFTLTISNVQSGDLADYFCQQYNNFPLTFGAGTKLEIKR
In the case of B1, the Hamaglutinin inhibition titer [1] is reported as 12800 titer, the Neutralization titer [1] is reported as 12800 titer and the HI titer (hemagglutinin inhibition assay) (n (HI titer = 2^n)) [2] is reported as over 8. For the same binder, the HI titer (hemagglutinin inhibition assay) (n (HI titer = 2^n)) [3] was over 8, the HI titer (hemagglutinin inhibition assay) (n (HI titer = 2^n)) [4] was 5 and the Positive number/total virus number, hemagglutination inhibition assay (of 15 virus strains positive) [5] was 15. It also gave a Hamaglutinin inhibition titer [6] of 12800 titer, a Neutralization titer [6] of 12800 titer and a Hamaglutinin inhibition titer [7] of 6400 titer. It also gave a Neutralization titer [7] of 12800 titer, an HI titer (hemagglutinin inhibition assay) (n (HI titer = 2^n)) [8] of 3 and an HI titer (hemagglutinin inhibition assay) (n (HI titer = 2^n)) [9] of 3. For the same binder, the Hamaglutinin inhibition titer [10] was 6400 titer, the Neutralization titer [10] was 12800 titer and the HI titer (hemagglutinin inhibition assay) (n (HI titer = 2^n)) [11] was 6. The HI titer (hemagglutinin inhibition assay) (n (HI titer = 2^n)) [12] was 4, the HI titer (hemagglutinin inhibition assay) (n (HI titer = 2^n)) [13] was 4 and the Hamaglutinin inhibition titer [14] was 12800 titer. It also gave a Neutralization titer [14] of 12800 titer, a Hamaglutinin inhibition titer [15] of 12800 titer and a Neutralization titer [15] of 12800 titer. The HI titer (hemagglutinin inhibition assay) (n (HI titer = 2^n)) [16] was 6, the Hamaglutinin inhibition titer [17] was 6400 titer and the Neutralization titer [17] was 12800 titer. The HI titer (hemagglutinin inhibition assay) (n (HI titer = 2^n)) [18] was 5, the HI titer (hemagglutinin inhibition assay) (n (HI titer = 2^n)) [19] was 7 and the Hamaglutinin inhibition titer [20] was 12800 titer. The Neutralization titer [20] was 12800 titer, the HI titer (hemagglutinin inhibition assay) (n (HI titer = 2^n)) [21] was 7 and the HI titer (hemagglutinin inhibition assay) (n (HI titer = 2^n)) [22] was over 8. For the same binder, the Hamaglutinin inhibition titer [23] was 12800 titer, the Neutralization titer [23] was 12800 titer and the Hamaglutinin inhibition titer [24] was 12800 titer. The Neutralization titer [24] was 12800 titer, the HI titer (hemagglutinin inhibition assay) (n (HI titer = 2^n)) [25] was 7 and the HI titer (hemagglutinin inhibition assay) (n (HI titer = 2^n)) [26] was 5. It also gave an HI titer (hemagglutinin inhibition assay) (n (HI titer = 2^n)) [27] of 5, an HI titer (hemagglutinin inhibition assay) (n (HI titer = 2^n)) [28] of 6 and a Hamaglutinin inhibition titer [29] of 12800 titer. The Neutralization titer [29] was 12800 titer, the HI titer (hemagglutinin inhibition assay) (n (HI titer = 2^n)) [30] was over 8 and the HI titer (hemagglutinin inhibition assay) (n (HI titer = 2^n)) [31] was 3. The HI titer (hemagglutinin inhibition assay) (n (HI titer = 2^n)) [32] was over 8, the HI titer (hemagglutinin inhibition assay) (n (HI titer = 2^n)) [33] was 3 and the Hamaglutinin inhibition titer [34] was 12800 titer. For the same binder, the Neutralization titer [34] was 12800 titer, the Hamaglutinin inhibition titer [35] was 12800 titer and the Neutralization titer [35] was 12800 titer. The Hamaglutinin inhibition titer [36] was 12800 titer, the Neutralization titer [36] was 12800 titer and the Positive number/total virus number, hemagglutination inhibition assay (of 14 virus strains positive) [37] was 0. The HI titer (hemagglutinin inhibition assay) (n (HI titer = 2^n)) [38] was 4, the HI titer (hemagglutinin inhibition assay) (n (HI titer = 2^n)) [39] was 5 and the Hamaglutinin inhibition titer [40] was 12800 titer. The Neutralization titer [40] was 12800 titer and the HI titer (hemagglutinin inhibition assay) (n (HI titer = 2^n)) [41] was 1.

B2: 13D4 chimeric antibody SV (antibody, V domains shown)
VH: B1 VH with T118S, E121V, L123S
VL: B1 VL
For B2, the HI titer (hemagglutinin inhibition assay) (n (HI titer = 2^n)) [2] was over 8, the HI titer (hemagglutinin inhibition assay) (n (HI titer = 2^n)) [3] was 6 and the HI titer (hemagglutinin inhibition assay) (n (HI titer = 2^n)) [4] was 5. The HI titer (hemagglutinin inhibition assay) (n (HI titer = 2^n)) [8] was 2, the HI titer (hemagglutinin inhibition assay) (n (HI titer = 2^n)) [9] was 4 and the HI titer (hemagglutinin inhibition assay) (n (HI titer = 2^n)) [11] was 5.5. The HI titer (hemagglutinin inhibition assay) (n (HI titer = 2^n)) [12] was 3, the HI titer (hemagglutinin inhibition assay) (n (HI titer = 2^n)) [13] was 4 and the HI titer (hemagglutinin inhibition assay) (n (HI titer = 2^n)) [16] was 5. It also gave an HI titer (hemagglutinin inhibition assay) (n (HI titer = 2^n)) [18] of 6, an HI titer (hemagglutinin inhibition assay) (n (HI titer = 2^n)) [19] of 7 and an HI titer (hemagglutinin inhibition assay) (n (HI titer = 2^n)) [21] of 6.5. It also gave an HI titer (hemagglutinin inhibition assay) (n (HI titer = 2^n)) [22] of 6.5, an HI titer (hemagglutinin inhibition assay) (n (HI titer = 2^n)) [25] of 6 and an HI titer (hemagglutinin inhibition assay) (n (HI titer = 2^n)) [26] of 5. The HI titer (hemagglutinin inhibition assay) (n (HI titer = 2^n)) [27] was 5, the HI titer (hemagglutinin inhibition assay) (n (HI titer = 2^n)) [28] was 3 and the HI titer (hemagglutinin inhibition assay) (n (HI titer = 2^n)) [30] was over 8. It also gave an HI titer (hemagglutinin inhibition assay) (n (HI titer = 2^n)) [31] of 5.5, an HI titer (hemagglutinin inhibition assay) (n (HI titer = 2^n)) [32] of under 8 and an HI titer (hemagglutinin inhibition assay) (n (HI titer = 2^n)) [33] of 4. For the same binder, the HI titer (hemagglutinin inhibition assay) (n (HI titer = 2^n)) [38] was 3.5, the HI titer (hemagglutinin inhibition assay) (n (HI titer = 2^n)) [39] was 4 and the HI titer (hemagglutinin inhibition assay) (n (HI titer = 2^n)) [41] was 1.

From patent publication US20110311522A1
